Test results published in the nanobody polyreactivity screen of Harvey et al. (2022).

Assay: yeast display, Sf9 membrane polyspecificity reagent, FACS + sequencing; frameworks hold sequencing errors
Summary of the method: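 Sorting gates, low and high (top ~1%), were placed on anti-HA fluorescence to track expression and on streptavidin fluorescence to track reagent binding. A clone's polyreactivity label is taken from the gate it came out of. The reagent was 10% biotinylated, detergent-solubilized Sf9 membrane, applied for 1 hour at 4 °C to galactose-induced yeast display cells.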

Sequence | polyreactivity (PSR sort gate)
QVQLVESGGGLVQAGGSLRLSCAASGRTFLYNAMGWYSQATWKERELVASITRRGGTTYYADSVKGRFTISRDNAKNTVYLQMNSLKPEDTAVYYCNAQPGISYYYYGHWYGYWGQGTQVTVSS | high polyreactivity
QVQLVESGGGLVQAGGSLRLSCAASGRTFLYYAMGWYRQAPGKERELVAAISSGGRTNYADSVNGRFTISRDNAKNTVYLQMNSRKPEDTAVYYCAVRRGAFSTYPGYNYWGQGTQVTVSS | high polyreactivity
QVQLVESGGGLVQAGGSLRLSCAASGRTFNFNVMGWYRQAPGKESQLVAAISKSTGSTFYADSVKGRFTISRDNAKNTVYLQMNSLKPEDTAVYYCNAVRCYGSGRGYGYCGQGTQVTVSS | high polyreactivity
QVQLVESGGGLVQAGGSLRLSCAASGRTFNIYAMGWYRQAPGKERELVAAITWRSGSTYYADSVKGRFTISRDNAKNTVYLQMNSLKPEDTAVYYCAAEQWSSVPEFDYWGQGSQVTVSS | high polyreactivity
QVQLVESGGGLVQAGGSLRLSCAASGRTFNRYAMGWYRQAPGKERELVAAINWSGGSTYYADSVKARFTISRDIAKTTVYLPMNSLKPEDTAVYYCAADVWGWGLRPYDYWGQGTQVTVSS | low polyreactivity
QVQLVESGGGLVQAGGSLRLSCAASGRTFNRYGMGWYRQAPGKERELVASITSGGSTNYADSVKGRFTISRDNAKNSVYLQMNSLKPEDTAVYYCAKRSIGRYPRTYDYWGQGTQVTVSS | low polyreactivity
QVQLVESGGGLVQAGGSLRLSCAASGRTFNTNAMGWYRQAPGKERELVAAISGSGVRTYYADSVKGRFTISRDNAKNTVYLQMNSLKPEDTAVYYCAARGQGGPYNYWGQGTQVTVSS | high polyreactivity
QVQLVESGGGLVQAGGSLRLSCAASGRTFNYNAMGWYRQAPGTERELVAAINYNGGSTYYADSVKGRFTISRDNAKNTVYLQMNSLKPEDTAVYYCAADQSTVLDVGSWGQGTQVTVSS | low polyreactivity
QVQLVESGGGLVQAGGSLRLSCAASGRTFNYYAMGWYRQAPGKERELVAAISSGGSTDYADSVKGRFTISRDNAKNTVYLQMNSMKPEDTAVYYCNAESYPGWAYFAYDYQFDYWGQGTQVTVSS | low polyreactivity
QVQLVESGGGLVQAGGSLRLSCAASGRTFNYYVMGWFRQAPGKERELVATINWSGGSTYYADSVKGRFTISRDNAKNTVYLQMNSLKPEDTAVYYCAARWFYHRNHNRNYWGQGTQVTVSS | high polyreactivity
QVQLVESGGGLVQAGGSLRLSCAASGRTFPANTMGWYRPAPGKERELVAAISSRGGSTYYADSVKGRFTISRDNAKKTVYLQMNSLKPEDTAVYYCNAYLYFPRYDYWGQGTQVTVSS | high polyreactivity
QVQLVESGGGLVQAGGSLRLSCAASGRTFPAYAMGWYRQAPGKERELVARISYSGGNTYYADSVKGRFTISRDNAKNTVYLQMNSLKPEDTAVYYCAATRSHYPYRSGGDYWGQGTQVTVSS | low polyreactivity
QVQLVESGGGLVQAGGSLRLSCAASGRTFPFYAMGWYRQAPGKERELVASISRSTGRTYYADSVKGRFTISRDNAKNTVYLQMNSLKPEDTAVYYCAKSGGSSQYWYGYWGQGTQVTVSS | high polyreactivity
QVQLVESGGGLVQAGGSLRLSCAASGRTFPFYAMGWYRQAPVKEREFVAAITASGDSTYYADSVKGRFTISRDNAKYTVYLQMNSLKPEDTAVYYCAADLPVWYVTRYDYWGQGTQVTVSS | low polyreactivity
QVQLVESGGGLVQAGGSLRLSCAASGRTFPGNAMGGDKQAPGKERELVASINGRTTRTYYADSVKGRFTISRDNAKNTVYLQMTSLKPEDTAVYYCAADPPGYVYGKRYYWGQGTQVTVSS | high polyreactivity
QVQLVESGGGLVQAGGSLRLSCAASGRTFPGNAMGWYRQAPGKERELVAAINSGGSTYYADSVKGRFTISRDNAKNTVYLQMNSLKPEDTAVYYSAAYFGHYWRYYYWGQGTQVNVSS | high polyreactivity
QVQLVESGGGLVQAGGSLRLSCAASGRTFPGYAMGWYRQAPGKARELVAGISYRGGSTYYADSVKGRFTISRDNAKNTVYLQLNSLKPEDTAVYYCARDYSRHKGDYWGQGTQVTVSS | low polyreactivity
QVQLVESGGGLVQAGGSLRLSCAASGRTFPGYAMGWYRQAPGKERELVAAITSSGDDTYYADSVKGRFTISRDNAKNTVYLQMNSLKPEDTAVYYCRLFRRSADSSYDYEYWGQGTQVTVSS | low polyreactivity
QVQLVESGGGLVQAGGSLRLSCAASGRTFPGYAMGWYRQAPGKERELVATITLSDGSTYYADSVKGRFTISRDNAKTTVYLQMNSLKPEDTAVYYCNARRSYFLRYGVNYWGQGTQVTVSS | low polyreactivity
QVQLVESGGGLVQAGGSLRLSCAASGRTFPGYAMGWYRQAPGKERELVAVISWSGGRTNYADSVKGRFTISRDNAKNTVYLQMNSLKPEDTAVYYCAARYHGHSNDYWGQGTQVTVSS | low polyreactivity
QVQLVESGGGLVQAGGSLRLSCAASGRTFPGYGMGWYRQAPGKERELVAVITSNGGITYYADSVKWRFTISRDIAKYTVYLVMNRLIAEDTAVYFCAAYEIYYEFVCWGQGSQVTVSS | low polyreactivity
QVQLVESGGGLVQAGGSLRLSCAASGRTFPPYGMGWYRQAPGKERELVAAISKSSGSTNYADSVKGRFTISRDNAKNTVYLQMNSLKPEDTAVYYCNVDLYRWSKLAGAYRMDYWGQGTQVTVSS | low polyreactivity
QVQLVESGGGLVQAGGSLRLSCAASGRTFPRYAMGWYRQAPGKERELVAAISRGGGTTYADSVKGRFTISRDNAKNTVYLQMNSLKPEDTAVYYCATRSPYSYPNLYYWGQGTQVTVSS | high polyreactivity
QVQLVESGGGLVQAGGSLRLSCAASGRTFPSNAMGWYRQAPGKEREFVASITYSGGRTYYADSVKGRFTISRDNAKNTVYLQVNSLKPEDTAVYYCAAYPQFWYLDYNYWGQGTQVTVSS | high polyreactivity
QVQLVESGGGLVQAGGSLRLSCAASGRTFPSYAMGWYRQAPGKERELVAAITTSGGSTYYADSVKGRFTISRDNAKNTVYLQMNSLKPEDTAVYYCAAAKPYSGSQYYYWGQGTQVTVSS | high polyreactivity
QVQLVESGGGLVQAGGSLRLSCAASGRTFPSYVMGWYRQAPGKERELVAAITATGASTYYADSVKGRFTISRDNAKNTVYLQMNSQKPEDTAVYYCAASRYGLYENGYEYYWGQVTQVTVSS | low polyreactivity
QVQLVESGGGLVQAGGSLRLSCAASGRTFPVNAMGWYRQAPGKEREFVAVISSTGTTYYADSVKGRFTISLDNAKITVYLQMNSLKPEDTAVYYCARRSNRRAYVNRVGVLRTVDYWGQGTQVTVSS | low polyreactivity
QVQLVESGGGLVQAGGSLRLSCAASGRTFPWYGKGWYRPAPGKERELVAAISRTGGNTYYADSVKGRFTISRDNAKNTVYLQMNSLKPEDTAVYYCNAGYYSNRYYFYDYGYWGQGTQVTVSS | high polyreactivity
QVQLVESGGGLVQAGGSLRLSCAASGRTFPYNAMGRYRQAPGKERELVAAISGRGGSTYYADSVKGRFTISRDNAKNTVYLQMNSLKPEDTAVYYCAVYTIYGFYYWGQGTQVTVSS | high polyreactivity
QVQLVESGGGLVQAGGSLRLSCAASGRTFPYNAMGWYRQAPGKEMELVAVISSSGGSTYYADSVKGRFTISRDNAKNTVYLQMNSLKPEDTAVYYCNTRPYYYRRPGYRYSGYDYWGQGTQVTVSS | high polyreactivity
